This passage reports mean fluorescence intensity and Kd results from patent US20200362300A1 (OSE IMMUNOTHERAPEUTICS, published 2020).

For assay [1], the target named is human CD127 on human blood T cells (human) (UniProt P16871). Description: flow cytometry on CD3+ cells of three human donors. A general note: Flow cytometry measures light scatter and fluorescence of single cells or particles in a stream.
Assay [2] has as its target CD127-Fc (Sino Biological) (UniProt P16871). Put plainly: SPR (Biacore), single cycle kinetics, CD127-Fc immobilised on CM5 chip, bivalent model. On the technique in general: SPR reads the build-up and loss of mass on a sensor chip optically.
The target in assay [3] is T1, CD127-Fc (Sino Biological) (UniProt P16871 21-239, limits assumed).
T1 construct: whole entry named; Immobilised by amine coupling on a CM5 chip; also called CD127 protein; not shown: Fc part of the bought fusion; not described
T1 sequence (looked up): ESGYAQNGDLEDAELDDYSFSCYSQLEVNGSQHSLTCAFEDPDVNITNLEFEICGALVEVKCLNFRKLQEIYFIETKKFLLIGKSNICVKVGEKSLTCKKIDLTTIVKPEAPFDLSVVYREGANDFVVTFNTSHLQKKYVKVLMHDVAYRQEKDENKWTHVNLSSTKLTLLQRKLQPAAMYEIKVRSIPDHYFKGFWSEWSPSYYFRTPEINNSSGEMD
The description is as above. Here is the method: CD127-Fc was immobilized by amine coupling on a CM5 chip. The carboxylic groups were esterified by injection of an NHS/EDC mix for 7 min. The CD127-Fc proteins diluted to 20 μg/ml in Na acetate buffer pH 4.6 were injected until an SPR signal of 500 RU was obtained. Free reactive sites were inactivated by injection of 1 M ethanolamine pH8.5 for 10 min.
Antibodies were analyzed in Single Cycle Kinetics (SCK) on CD127 to determine kinetic and affinity parameters. The surface functionalized with CD127-Fc was regenerated between each cycle by injection of a 4 M MgCl 2 solution for 30 seconds.

For “eBIORDR5 (CD127 Monoclonal Antibody, eBioscience from Invitrogen/Thermo Fisher Scientific catalog # 14-1278-82)”, the mean fluorescence intensity in assay [1] was 4140 MFI. Moreover, the Kd in assay [2] is 0.0683 nM.

B1: Effi3-VH3VL3 (antibody, V domains shown)
VH: AVQLVESGGGLVQPGGSLKITCAASGFTFTNAAMYWVRQAPGKGLEWVARIRTKANNYATYYADSVKGRFTISRDDSKSTVYLQMDSVKTEDTATYYCIVVVLTTTRDYFDYWGQGVLVTVSS
VL: DIVLTQSPSSLPVTPGEPASISCRSSQSLLTVKGITSLYWFLQKPGQSPKLLIYRMSNRDSGVPDRFSGSGSETDFTLKISRVEAEDVGTYYCAQFLEYPHTFGAGTKLELKR
notes: also called Effi3-VH3L3; Effi3 clone VH3VL3
In assay [3], B1 registered a Kd of 1.62 nM.
